According to paper PMC3558595 (Integrative biology : quantitative biosciences from nano to …, 2013):

Biological target: the molecule itself
Test: FRET or BRET

B1: Wzm, transmembrane protein of the A-band polysaccharide ABC transporter of Pseudomonas aeruginosa, fused to GFP2 or YFP (natural protein, Pseudomonas aeruginosa PAO1, UniProt Q9HTB8 1-265, looked up)
chain: MLLGLSRSLWGYRGFVLGSVKREFQSRYRGSLFGALWTVLNPLSMIVVYTVIFSQVMRARLPGVDDGLAYSVYLCAGLLTWGLFAEITSRSQSMFIENANLLKKISFPRICLPVIVLLNAGVNFAIILALFLGFLALSGRLPGAALLALVPLLAIQVLFAAGLGMILGVLNVFFRDVGQLFGICLQFWFWLTPIVYPIGILPEGIRSLIELNPMTALMRSYQQLFLHGQWPDWPSLLPITLLALLLCALGLRLFRQRVGEMVDEL
  stoichiometry N: 4
